# Like-named read-outs stand apart in the source and are kept apart here.
# B1: Rpn1 (412–625) (domain or fragment, yeast, UniProt P38764 412-625, looked up)
# chain: GDGMTSAVASIGSIYQWNLDGLQQLDKYLYVDEPEVKAGALLGIGISASGVHDGEVEPALLLLQDYVTNPDTKISSAAILGLGIAFAGSKNDEVLGLLLPIAASTDLPIETAAMASLALAHVFVGTCNGDITTSIMDNFLERTAIELKTDWVRFLALALGILYMGQGEQVDDVLETISAIEHPMTSAIEVLVGSCAYTGTGDVLLIQDLLHRLT
# Experiments:
# ubiquitin [1] = biological target: T1, ubiquitin (UniProt P0CG48 1-76); assay: NMR titration
# dynamic light scattering = biological target: the molecule itself; assay: dynamic light scattering
# ubiquitin [2] = biological target: T1, ubiquitin; assay: NMR titration; remark: listed apart in the source
# Rpn1 (412–625) = biological target: B1; assay: ITC
binder,measurement,setting,value
"Rpn13 Pru domain (amino acids 1–150), no substitutions (domain or fragment, yeast, UniProt O13563 1-150, looked up) MSMSSTVIKFRAGVCEYNEDSRLCTPIPVQGEIEIKPNEEEELGFWDFEWRPTEKPVGRELDPISLILIPGETMWVPIKSSKSGRIFALVFSSNERYFFWLQEKNSGNLPLNELSAKDKEIYNKMIGVLNNSSESDEEESNDEKQKAQDV",binding result,ubiquitin [1],binds
B1,binding result,dynamic light scattering,binds
same,binding result,ubiquitin [2],binds
"Rad23 UBL domain (amino acids 1–78) (domain or fragment, yeast, UniProt P32628 1-78, looked up) MVSLTFKNFKKEKVPLDLEPSNTILETKTKLAQSISCEESQIKLIYSGKVLQDSKTVSECGLKDGDQVVFMVSQKKST",Kd,Rpn1 (412–625),64 ± 25 nM
